The supplement of paper PMC7125110
± gives the standard error. This sample holds only a part of the variants without activity.

B1: glmS ribozyme (parent)
chain: AUAAAAGCGCCAGAACUACAGAAAUGUAGUUGACGAGGAGGAGGUUUAUCGAAUUUUCGGCGGAUGCCUCCAAA

Variants of: B1
Assay: self-cleavage kobs at 2500 uM GlcN6P; higher = faster cleavage; RNA array
Conditions: with glucosamine-6-phosphate
How it was run: (§1)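 On sequenced MiSeq chips, barcoded ribozyme variants were made in situ by E. coli RNA polymerase and followed at 37 °C through a hybridised Cy3 probe. Glucosamine-6-phosphate was flowed in at 40 μM to 10 mM in HEPES/KCl/Mg(OAc)2 buffer. Exponential fits to normalised per-tile medians gave kobs, and weighted Michaelis–Menten fits gave kcat and KM.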

Variant	self-cleavage kobs at 2500 uM GlcN6P [s⁻¹]
A6U G32C C34G U55G U56A	< 1e-05
A6U G35U U45A U57A	< 1e-05
A6U A14U G29A C34G G63A	< 1e-05
U49A C50A C70G	4.46e-05 ± 2e-05
G43A G51U U65A G66U	< 1e-05
U47A G66C	0.000448 ± 0.00013
A6U G9A C68U	< 1e-05
G7C G9C C61G G62U	< 1e-05
A6U A39U G41C	< 1e-05
A52U A53C C71G	< 1e-05
U49C U55C	< 1e-05
A6U G32C C34U	< 1e-05
G7A U31A G44C	< 1e-05
U46A U56C C68A	< 1e-05
G51U A52G G59A	< 1e-05
A48G U55C G59C	< 1e-05
A6C G7U U54C	< 1e-05
A6C G7C G63A	< 1e-05
C58U C67U U69A	0.000214 ± 9e-05
A6C C10U G37U C50G U54C C70A	0.000151 ± 3.4e-05
G7A C67A U69A	< 1e-05
G44U C67U C71U	0.00069 ± 0.00025
A6G A14C A48G	< 1e-05
G7C C16U G29U C61U	< 1e-05
A6U G37A U49C U54A	< 1e-05
G7A C10A A48G	< 1e-05

Variant	self-cleavage kobs at 2500 uM GlcN6P [s⁻¹]
G7A A33C C58U U65G C70G	< 1e-05
A6C A14C G32A G38U	< 1e-05
C50U C61A A64U C67G	9.68e-05 ± 4.1e-05
U65G U69C C71U	6.97e-05 ± 2.6e-05
A6U C58A C67A	< 1e-05
U49C C50U G51A	< 1e-05
G7C C11G G37U C58U	< 1e-05
A6G A14U U45C	< 1e-05
G7A G51U U54G	< 1e-05
A6C C34U C50G	0.000502 ± 0.00022
A6U G13A G35C A52C	< 1e-05
G60U U69A	< 1e-05
A6U G35U G51U	< 1e-05
G7A C10G G37U	< 1e-05
A6U A14G U49C	< 1e-05
A6G A14U U30C A48U C67G C68G	7.37e-05 ± 3e-05
G63U U65C	< 1e-05
A6G U31C A36G A42U	< 1e-05
G7A G13A C68A	< 1e-05
U46A A52C C61U	< 1e-05
A4C	0.0314 ± 0.0074
A6G U65C C68U	< 1e-05
A52G U69G C70U	7.59e-05 ± 1.7e-05
U2C C61G	< 1e-05
A6C C34A A39G U45A	< 1e-05
G7A A36G G38A U47G A53G	< 1e-05

Variant	self-cleavage kobs at 2500 uM GlcN6P [s⁻¹]
A53U U54A U56A C70G	8.57e-05 ± 1.9e-05
A42U C67A U69G C71U	7.23e-05 ± 1.9e-05
G44U A48U A64G C67G	0.000485 ± 0.00017
A6G G51C G62A	< 1e-05
A6C A36G C61G G66A	< 1e-05
A6U U31C C50A U56G	< 1e-05
A42U G44C	< 1e-05
A6U A14C U45A A48G G66U	< 1e-05
A6U A36C C67G	< 1e-05
A6C G37C	< 1e-05
U45C A48C G63U	< 1e-05
G7C A33C A36C G66U	< 1e-05
G7A C50G G63C	0.000242 ± 7.3e-05
A52C A53C U55C C67G	< 1e-05
U46G C58A A64U	< 1e-05
A6G U54G C70U	0.0001 ± 2.2e-05
G7A A42U	< 1e-05
U46C G51C C70U	< 1e-05
G62U G63U G66C	< 1e-05
U49C U54A G63U	< 1e-05
U47A A48U C58G	< 1e-05
A6U G44U G63C	< 1e-05
A53U C58A C68U	6.03e-05 ± 2e-05
U54A A64G C68G	0.000109 ± 3.5e-05
A6G C50U A64C C71U	< 1e-05
A6G G9U G29U G37A U46C U56C	< 1e-05

Variant	self-cleavage kobs at 2500 uM GlcN6P [s⁻¹]
C58A G60U	< 1e-05
A6U C8A U56A	< 1e-05
U47A C61A C67G C71A	< 1e-05
G7C C11A C16U	< 1e-05
G44U A48U C67U	0.000418 ± 0.00012
A6G G38A G40A G60C	< 1e-05
G44A U55A G59U	< 1e-05
U45G U46C C71U	0.00445 ± 0.001
U45G U54C C61U	< 1e-05
A6U A12C G51A	< 1e-05
G7A A33U C61G C70G	< 1e-05
A6U A15U A36C	< 1e-05
G7A G44U A48G	< 1e-05
U56G U57G G66U	< 1e-05
A6G G13U G40A C71U	< 1e-05
U45C U65C G66U C68G	< 1e-05
A6G U31A	0.000107 ± 3.2e-05
A53U U56A C71U	0.00323 ± 0.00064
U65A G66A C71U	0.000397 ± 0.0001
A6G A36C U55C	< 1e-05
A6C A12G U55C C70A	< 1e-05
A6G C50G C61U	0.000108 ± 3.5e-05
G51C U56G	< 1e-05
A6C G13A A39C C67U C70G	< 1e-05

Variants of: B1
Assay: self-cleavage kobs at 640 uM GlcN6P; higher = faster cleavage; RNA array
Conditions: with glucosamine-6-phosphate
How it was run: as §1

Variant	self-cleavage kobs at 640 uM GlcN6P [s⁻¹]
U49A C50A C70G	5.26e-05 ± 2.2e-05
G43A G51U U65A G66U	< 1e-05
U47A G66C	0.000329 ± 7.2e-05
A52U A53C C71G	< 1e-05
G44U A64U C68A	< 1e-05
U49C U55C	< 1e-05
G44C C68A U69G	< 1e-05
U46A U56C C68A	< 1e-05
G51U A52G G59A	< 1e-05
A48G U55C G59C	< 1e-05
A48U G62U C70U	< 1e-05
C58U C67U U69A	6.03e-05 ± 2.7e-05
G44U C67U C71U	0.00022 ± 6.3e-05
U55C C61G G62C	< 1e-05
U49C C50A C70A	7.42e-05 ± 3.6e-05
C50U C61A A64U C67G	8.84e-05 ± 4.2e-05
U65G U69C C71U	6.22e-05 ± 1.6e-05
G43C A52C C68A	< 1e-05
U49C C50U G51A	< 1e-05
U46C G59C	< 1e-05
G51A G62C G63C	< 1e-05
C58U G62A C68G	6.69e-05 ± 2.4e-05
G60U U69A	< 1e-05
C58G G62A G63C C71A	5.92e-05 ± 2.4e-05
G44C A48U C50A	< 1e-05
G63U U65C	< 1e-05
U46A A52C C61U	< 1e-05

Variant	self-cleavage kobs at 640 uM GlcN6P [s⁻¹]
U46G G51U U56G U69G	0.000445 ± 0.00011
C50A U54C U57C C70A	< 1e-05
A64U C67U C71U	< 1e-05
A52G U69G C70U	0.000107 ± 3.1e-05
A48C U49G	< 1e-05
U49A C50G	< 1e-05
A53U U54A U56A C70G	0.000134 ± 3e-05
A42U C67A U69G C71U	4.51e-05 ± 2e-05
U47G U49A A52U	< 1e-05
G44U A48U A64G C67G	0.000188 ± 7.9e-05
A42U G44C	< 1e-05
U45C A48C G63U	< 1e-05
U65G A72C	0.000308 ± 7.4e-05
G63C U69G	5.78e-05 ± 2.2e-05
G60A C61G C67G	< 1e-05
A48U C50G C70U	9.42e-05 ± 2.9e-05
U45G U55C C68U	< 1e-05
A52C A53C U55C C67G	< 1e-05
U46G C58A A64U	< 1e-05
U46C G51C C70U	< 1e-05
G62U G63U G66C	< 1e-05
G43A U55A C58U	< 1e-05
U49C U54A G63U	< 1e-05
U47A A48U C58G	< 1e-05
A53U C58A C68U	9.67e-05 ± 3.2e-05
U54A A64G C68G	5.8e-05 ± 2.1e-05
C58A G60U	< 1e-05

Variant	self-cleavage kobs at 640 uM GlcN6P [s⁻¹]
U47A C61A C67G C71A	< 1e-05
G44U A48U C67U	0.000119 ± 4.8e-05
G44C U57G C58U	< 1e-05
G44A U55A G59U	< 1e-05
U46A A53G U65G	0.000479 ± 0.00011
C50A G51U G59A U69A	0.000511 ± 0.00021
U46G C50U C67U C68A U69G	0.00024 ± 9.9e-05
U45G U46C C71U	0.000925 ± 0.00024
U45G U54C C61U	< 1e-05
C58U U69A	6.22e-05 ± 2.6e-05
G59C A64G U69G	< 1e-05
U57A G63U	< 1e-05
G51C A64C	< 1e-05
U56G U57G G66U	< 1e-05
C58U C61G C67U	7.86e-05 ± 3.1e-05
G51C G63U	< 1e-05
U45C U65C G66U C68G	< 1e-05
U47G U55A C68G C71G	0.000142 ± 4.5e-05
A53U C58G C68U	9.02e-05 ± 3.1e-05
A53U U56A C71U	0.00121 ± 0.00015
U65A G66A C71U	0.000198 ± 4.2e-05
G44A U46A G62A	< 1e-05
G51C U56G	< 1e-05
G51C U56A	< 1e-05
U49C A52G U65C	< 1e-05
A52C G62A G63C	< 1e-05

Variants of: B1
Assay: self-cleavage kobs at 10000 uM GlcN6P; higher = faster cleavage; RNA array
Conditions: with glucosamine-6-phosphate
How it was run: as §1

Variant	self-cleavage kobs at 10000 uM GlcN6P [s⁻¹]
G7C C11G G37U C58U	< 1e-05
G60U U69A	< 1e-05
A48C U49G	< 1e-05
A42U G44C	< 1e-05
A6C G37C	< 1e-05
G7A A42U	< 1e-05
C58A G60U	< 1e-05
A6G G38A G40A G60C	< 1e-05
U46G C50U C67U C68A U69G	4.36e-05 ± 1.5e-05
G51C A64C	< 1e-05
G51C G63U	< 1e-05
U47G U55A C68G C71G	4.14e-05 ± 1.5e-05
A6G U31A	0.000258 ± 6e-05
G51C U56G	< 1e-05
G51C U56A	< 1e-05
